Ends that are not written are not given here.
T1: human IL-2Rγc (CD132 protein, Fc Tag) (23-254) (human, UniProt P31785 23-254)
T1 construct: range 23-254; Bought protein; also called IL-2Rγc subunit; γc subunit; not shown: Fc Tag of the bought protein (ACRObiosystems ILG-H5256)
T1 sequence (looked up): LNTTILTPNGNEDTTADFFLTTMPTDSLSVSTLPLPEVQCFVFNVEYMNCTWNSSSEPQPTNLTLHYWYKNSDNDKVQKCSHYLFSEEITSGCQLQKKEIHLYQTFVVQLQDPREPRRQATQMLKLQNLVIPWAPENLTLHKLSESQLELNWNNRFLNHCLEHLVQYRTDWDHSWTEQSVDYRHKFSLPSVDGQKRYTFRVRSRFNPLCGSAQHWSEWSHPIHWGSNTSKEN

T2: human IL-2Rβ (CD122 protein, Fc Tag) (27-239) (human, UniProt P14784 27-239)
T2 construct: range 27-239; Bought protein; also called IL-2Rβ subunit; IL-2Rβ-Fc; not shown: Fc Tag of the bought protein (ACRObiosystems ILB-H5253)
T2 sequence (looked up): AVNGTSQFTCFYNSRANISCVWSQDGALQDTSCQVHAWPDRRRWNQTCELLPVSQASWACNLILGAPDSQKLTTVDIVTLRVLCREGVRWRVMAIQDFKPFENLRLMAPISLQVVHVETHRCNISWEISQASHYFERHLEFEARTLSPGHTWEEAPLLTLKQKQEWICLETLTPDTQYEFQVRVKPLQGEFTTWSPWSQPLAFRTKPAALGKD


What follows are binders tested against T1, human IL-2Rγc (CD132 protein, Fc Tag) … (assay: IC50, method not told in the paragraph).

| Binder | IC50 [µM] |
| --- | --- |
| RTCTEWENVVLCWV (not fully specified; cysteine pairing not given here) [IL-2Rγc ligand SEQ ID NO: 202] | < 10 |
| CPSMLQGPERTWVC [IL-2Rγc ligand SEQ ID NO: 266] | < 10 |
| DCSMWEGVELCW (also called Peptide F) [IL-2Rγc ligand SEQ ID NO: 224] | < 10 |
| KVCEMWGGVLLCWN [IL-2Rγc ligand SEQ ID NO: 198] | < 10 |
| DLSDLSTFWLSQ (not fully specified, Family 3; also called 248 or 1051) [IL-2Rγc ligand SEQ ID NO: 1051] | < 10 |
| MCWLEWGEWVGSCL [IL-2Rγc ligand SEQ ID NO: 236] | < 10 |
| SLLKCYNASTCASVF [IL-2Rγc ligand SEQ ID NO: 948] | < 10 |

What follows are binders tested against T2, human IL-2Rβ (CD122 protein, Fc Tag) … (assay: IC50, method not told in the paragraph).

| Binder | IC50 [µM] |
| --- | --- |
| QICDVGQWWPDCQV [IL-2Rβ ligand SEQ ID NO: 170] | < 10 |
| RWGDVGDLLMPL [IL-2Rβ ligand SEQ ID NO: 1043] | < 10 |
| NMCLVGDYWPSCQI [IL-2Rβ ligand SEQ ID NO: 169] | < 10 |
| RSCYYKRPRLWCSE [IL-2Rβ ligand SEQ ID NO: 1044] | < 10 |
| CCYQAMVGDLCDFC [IL-2Rβ ligand SEQ ID NO: 83] | < 10 |
| YDCRIAQVGELCDL (also called Peptide E) [IL-2Rβ ligand SEQ ID NO: 58] | < 10 |
| CGMAIGDLCMWT [IL-2Rβ ligand SEQ ID NO: 1084] | < 10 |

What follows are binders tested against T2, human IL-2Rβ (CD122 protein, Fc Tag) … (assay: pH-dependent ELISA (Examples 9-12)).
Method: For each peptide to be assayed, 16 ELISA plate wells were coated with neutravidin ([…] in PBS pH7.2) at 50 μL/well. The coated wells were incubated at 25° C. for at least 1 h.
The neutravidin was removed from each well. Three-hundred (300) μL of blocking buffer (1×PBS pH 7.2, 1% BSA) was added to each well of the neutravidin-coated plates. All plates were covered and maintained at 25° C. for 1 h or overnight at 4° C.
The biotinylated peptides were diluted to 1 μM in PBT pH 7.2 buffer and 50 uL was added to the appropriate 16 wells (8 for each binding pH). The plates were incubated at 25° C. for at least 1 h.

| Binder | decrease in binding at pH 7.5 compared to pH 6.0 [%] |
| --- | --- |
| HECRFAQVGELCDL [SEQ ID NO 418] | > 15 |
| KACSIAQVGDLCEIYGFDDA [SEQ ID NO 421] | > 15 |
| KDCRLAYVGELCDLNRSDTI [SEQ ID NO 423] | > 15 |
| HQCRFAHVGELCDLFVFESY [SEQ ID NO 419] | > 15 |
| FECWIAQVGELCDL [SEQ ID NO 411] | > 15 |
| HDCWFAKLGELCDLRQMSFV [SEQ ID NO 416] | > 15 |

Source: patent publication US20230192767A1 (MEDIKINE, published 2023)
